B1: INTS4 (parent)
chain: AKQIMEETYKMEFMYSGVENKQVV
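Note: lentivirally expressed fusions sorted by FACS into six bins by GFP to DsRed ratio, PSI derived from sequencing read proportions per bin multiplied by bin number.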

This data set covers variants of B1. Description: protein stability index of a GFP-peptide fusion (GPS, HEK-293T) (PSI 1-6); higher = more stable. The conditions noted are these: c terminus: a fixed tail appended.
For SKQIMEETYKMEFMYSGVENKQVV [A1S], the protein stability index came out at 2.82.
As to HKQIMEETYKMEFMYSGVENKQVV [A1H], the protein stability index was found to be 2.72.
For the variant GKQIMEETYKMEFMYSGVENKQVV [A1G], the protein stability index was 2.39.
The figure for MKQIMEETYKMEFMYSGVENKQVV [A1M] is 1.34; for LKQIMEETYKMEFMYSGVENKQVV [A1L] it is 2.44; for TKQIMEETYKMEFMYSGVENKQVV [A1T] it is 2.8.
The figure for VKQIMEETYKMEFMYSGVENKQVV [A1V] is 2.07; for WKQIMEETYKMEFMYSGVENKQVV [A1W] it is 2.44.
Then DKQIMEETYKMEFMYSGVENKQVV [A1D], with 3.46.
For the variant KKQIMEETYKMEFMYSGVENKQVV [A1K], the protein stability index is 2.68.
Then IKQIMEETYKMEFMYSGVENKQVV [A1I], with 1.42.
Then RKQIMEETYKMEFMYSGVENKQVV [A1R], with 2.69; and AKQIMFETYKMEFMYSGVENKQVV [E6F], with 2.01; and AKQIMQETYKMEFMYSGVENKQVV [E6Q], with 1.77.
Then AKQIMTETYKMEFMYSGVENKQVV [E6T], with 1.76; and AKQIMGETYKMEFMYSGVENKQVV [E6G], with 3.01; and AKQIMNETYKMEFMYSGVENKQVV [E6N], with 2.12.
For AKQIMIETYKMEFMYSGVENKQVV [E6I], the protein stability index amounted to 2.61.
The figure for AKQIMYETYKMEFMYSGVENKQVV [E6Y] is 1.61; for AKQIMVETYKMEFMYSGVENKQVV [E6V] it is 2.54.
On to ATQIMEETYKMEFMYSGVENKQVV [K2T], for which the protein stability index turned out to be 2.54.
Take AAQIMEETYKMEFMYSGVENKQVV [K2A]: the protein stability index is 1.89.
For AYQIMEETYKMEFMYSGVENKQVV [K2Y], the protein stability index came to 1.87.
Then AEQIMEETYKMEFMYSGVENKQVV [K2E], with 3.43.
The figure for ANQIMEETYKMEFMYSGVENKQVV [K2N] is 3.62; for AGQIMEETYKMEFMYSGVENKQVV [K2G] it is 3.06.
Consider AHQIMEETYKMEFMYSGVENKQVV [K2H], for which the protein stability index worked out at 3.23.
The figure for ADQIMEETYKMEFMYSGVENKQVV [K2D] is 3.15; for ACQIMEETYKMEFMYSGVENKQVV [K2C] it is 2.23; for AKQIMEETKKMEFMYSGVENKQVV [Y9K] it is 3.57.
The figure for AKQIMEETDKMEFMYSGVENKQVV [Y9D] is 3.83.
Then AKQIMEETWKMEFMYSGVENKQVV [Y9W], with 2.18; and AKQIMEETFKMEFMYSGVENKQVV [Y9F], with 2.26; and AKQIMEETEKMEFMYSGVENKQVV [Y9E], with 4.34.
With AKQIMEETSKMEFMYSGVENKQVV [Y9S], the protein stability index amounted to 3.9.
Then AKQIMEETPKMEFMYSGVENKQVV [Y9P], with 3.78; and AKQIMEETIKMEFMYSGVENKQVV [Y9I], with 2.02; and AKQIMEETAKMEFMYSGVENKQVV [Y9A], with 3.9.
The figure for AKQIMEETGKMEFMYSGVENKQVV [Y9G] is 3.84; for AKQIMEETVKMEFMYSGVENKQVV [Y9V] it is 3.1.
Then AKQIMEETNKMEFMYSGVENKQVV [Y9N], with 4.24; and AKQIMEETHKMEFMYSGVENKQVV [Y9H], with 3.61; and AKMIMEETYKMEFMYSGVENKQVV [Q3M], with 1.51.
In the case of AKPIMEETYKMEFMYSGVENKQVV [Q3P], the protein stability index stood at 2.85.
Turning to AKWIMEETYKMEFMYSGVENKQVV [Q3W], the protein stability index stood at 2.53.
For AKKIMEETYKMEFMYSGVENKQVV [Q3K], the protein stability index is 1.96.
Consider AKGIMEETYKMEFMYSGVENKQVV [Q3G], for which the protein stability index was 3.49.
For the variant AKIIMEETYKMEFMYSGVENKQVV [Q3I], the protein stability index came out at 2.17.
For AKEIMEETYKMEFMYSGVENKQVV [Q3E], the protein stability index came to 2.3.
Consider AKNIMEETYKMEFMYSGVENKQVV [Q3N], for which the protein stability index amounted to 1.68.
Take AKQIMEETYKMEDMYSGVENKQVV [F13D]: the protein stability index worked out at 4.6.
With AKQIMEETYKMENMYSGVENKQVV [F13N], the protein stability index was 4.04.
The figure for AKQIMEETYKMETMYSGVENKQVV [F13T] is 3.57.
Then AKQIMEETYKMECMYSGVENKQVV [F13C], with 2.96; and AKQIMEETYKMEHMYSGVENKQVV [F13H], with 4.01; and AKQIMEETYKMERMYSGVENKQVV [F13R], with 3.52.
Consider AKQIFEETYKMEFMYSGVENKQVV [M5F], for which the protein stability index was found to be 1.79.
The figure for AKQIKEETYKMEFMYSGVENKQVV [M5K] is 3.05; for AKQIIEETYKMEFMYSGVENKQVV [M5I] it is 1.08; for AKQITEETYKMEFMYSGVENKQVV [M5T] it is 2.98.
Then AKQIREETYKMEFMYSGVENKQVV [M5R], with 2.87; and AKQIDEETYKMEFMYSGVENKQVV [M5D], with 3.99; and AKQIWEETYKMEFMYSGVENKQVV [M5W], with 2.11.
In the case of AKQINEETYKMEFMYSGVENKQVV [M5N], the protein stability index was 3.75.
With AKQIQEETYKMEFMYSGVENKQVV [M5Q], the protein stability index turned out to be 3.25.
Take AKQIPEETYKMEFMYSGVENKQVV [M5P]: the protein stability index is 2.54.
As for AKQIMEETYKMEFMYSGVEHKQVV [N20H], the protein stability index came out at 1.59.
As for AKQIMEETYKMEFMYSGVEKKQVV [N20K], the protein stability index was 1.46.
Then AKQIMEETYKMEFMYSGVEGKQVV [N20G], with 2.55; and AKQIMEETYKMEFMYSGVEFKQVV [N20F], with 2.86; and AKQIMEETYKMEFMYSGVEWKQVV [N20W], with 3.06.
The figure for AKQIMEETYKMEFMYSGVEDKQVV [N20D] is 1.33; for AKQIMEETYKMEFMYSGVEVKQVV [N20V] it is 1.17; for AKQIMEETYKMEFMYSGVEYKQVV [N20Y] it is 1.73.
Regarding AKQIMEETYKMEFMYSGVESKQVV [N20S], the protein stability index turned out to be 1.44.
The figure for AKQIMEETYKMEFMYSGVEPKQVV [N20P] is 1.72; for AKQIMEETYKMEFMYSGVEEKQVV [N20E] it is 2.44.
Then AKQIMEETYKMEFMYSGVENKQCV [V23C], with 1.6; and AKQIMEETYKMEFMYSGVENKQSV [V23S], with 1.76.
The figure for AKQIMEETYKMEFMYSGVENKQEV [V23E] is 1.97; for AKQIMEETYKMEFMYSGVENKQPV [V23P] it is 1.42; for AKQIMEETYKMEFMYSGVENKQIV [V23I] it is 2.2.
As for AKQIMEETYKMEFMYSGVENKQFV [V23F], the protein stability index turned out to be 1.16.
The figure for AKQIMEETYKMYFMYSGVENKQVV [E12Y] is 2.44.
For AKQIMEETYKMCFMYSGVENKQVV [E12C], the protein stability index was 1.6.
The figure for AKQIMEETYKMGFMYSGVENKQVV [E12G] is 2.66; for AKQIMEETYKMVFMYSGVENKQVV [E12V] it is 1.06.
AKQIMEETYKMSFMYSGVENKQVV [E12S]: the protein stability index stood at 1.61.
The figure for AKQIMEETYKMPFMYSGVENKQVV [E12P] is 3.16; for AKQIMEETYKMNFMYSGVENKQVV [E12N] it is 1.81; for AKQIMEETYKMWFMYSGVENKQVV [E12W] it is 2.48.
As to AKQIMEETYKMTFMYSGVENKQVV [E12T], the protein stability index was 2.33.
For the variant AKQIMEETYKMQFMYSGVENKQVV [E12Q], the protein stability index worked out at 2.42.
With AKQIMEETYKMFFMYSGVENKQVV [E12F], the protein stability index stood at 1.95.

Values taken from the supplement of paper PMC10567573.
